Assay results reported in patent US20170342144A1 (Sanofi, published 2017).
Each block holds one molecule with its values, some of them ahead of it.

What was measured:
human TGFβ1 [1] = target: T1, human TGFβ1 (human, UniProt P01137 279-390); test: cell-based or functional assay
T1 construct: also called TGFβ1 homodimer

human TGFβ3 [2] = target: T2, human TGFβ3 (human, UniProt P10600 301-412); test: SPR (Biacore 3000), TGFβ3 amine-coupled to the chip, GC1008 IgG as analyte, 1:1 model, average of more than 25 assays
T2 sequence: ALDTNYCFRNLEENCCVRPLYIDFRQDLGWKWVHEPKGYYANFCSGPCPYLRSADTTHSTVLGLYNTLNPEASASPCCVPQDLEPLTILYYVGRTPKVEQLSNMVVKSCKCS
Protocol: (§1) Additionally, the TGFβ isoform binding affinity of the GC1008 antibody was measured using a Biacore® 3000 (GE Healthcare) instrument. TGFβ1 and TGFβ2, produced in-house, were diluted to ˜1 μg/mL in 10 mM acetate, pH 4.5, and TGFβ3 (R&D Systems) was diluted to ˜2 μg/mL in 10 mM acetate, pH 4.0. Flowcells 2, 3, and 4 of a CMS sensor chip were covalently immobilized with 50 to 100 RU of TGFβ1, TGFβ2, and TGFβ3, respectively, using the standard amine coupling kit from GE Healthcare. Flowcell 1 was used as a control surface. […] The surface was regenerated with two 30 sec injections of 40 mM HCl at 75 μL/min. The sensorgrams were fit using a 1:1 binding model after subtraction of buffer and control flowcell refractive index changes with the BIA Evaluation Software Kit (GE Healthcare). The KD's shown in TABLE 6 are an average of more than 25 independent assays.

human TGFβ1 [3] = target: T1, human TGFβ1; test: SPR (Biacore 3000), TGFβ1 amine-coupled to the chip, GC1008 IgG as analyte, 1:1 model, average of more than 25 assays
Protocol: as §1

human TGFβ2 [4] = target: T3, human TGFβ2 (human, UniProt P61812 303-414); test: SPR (Biacore 3000), TGFβ2 amine-coupled to the chip, GC1008 IgG as analyte, 1:1 model, average of more than 25 assays
T3 construct: also called TGFβ2 homodimer
T3 sequence: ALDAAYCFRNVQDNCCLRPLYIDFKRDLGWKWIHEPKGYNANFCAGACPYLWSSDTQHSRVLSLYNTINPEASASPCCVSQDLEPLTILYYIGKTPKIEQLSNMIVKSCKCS
Protocol: as §1

human TGFβ3 [5] = target: T2, human TGFβ3; test: Biacore, top 2 concentrations only (90, 30 nM), 1:1 global fit, vs wt GC1008
Protocol: (§2) In FIG. 6C, seventeen mutants were selected and scaled up to produce sufficient amount of purified protein for KD (equilibrium constant=kd/ka) analysis by Biacore. Multiple concentrations (90, 30, 10 and 3.33 nM) were used in duplicate on the 150 RU level TGFβ1, 2, and 3 immobilized surfaces. KD was calculated using global curve fitting analysis for a 1-to-1 Langmuir binding model. The experimental data from all four concentrations were used for calculation except for I54N and I54R mutants, where only the top 2 concentrations were used. The fold changes in KD were compared to the fold changes in kd (off rate) presented in FIG. 6B, and a heat map was generated for visualization. Similar fold changes were observed from the two data sets, confirming the validity of using kd as a parameter for screening of 155 single mutants as shown in FIG. 6B.

human TGFβ2 [6] = target: T3, human TGFβ2; test: as above
Protocol: as §2

human TGFβ1 [7] = target: T1, human TGFβ1; test: as above
Protocol: as §2

human TGFβ3 [8] = target: T2, human TGFβ3; test: Biacore off-rate vs wt GC1008, 50 nM
In short: (§3)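 Surface plasmon resonance on a Biacore 3000 measured how fast purified antibody variants dissociated from TGFβ isoforms immobilized at about 100 RU. Variants carried single heavy- or light-chain substitutions and were produced by transient Expi293F transfection with Protein A cleanup. Samples at 50 nM were tested in duplicate, and each variant kd was divided by the wild-type control kd to give fold change.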

human TGFβ2 [9] = target: T3, human TGFβ2; test: Biacore off-rate vs wt GC1008, 50 nM
In short: as §3

human TGFβ1 [10] = target: T1, human TGFβ1; test: Biacore off-rate vs wt GC1008, 50 nM
In short: as §3

human TGFβ3 [11] = target: T2, human TGFβ3; test: Biacore off-rate vs wt GC1008
In short: (§4)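 Single amino acid substitution variants of the GC1008 antibody were made by site-directed mutagenesis, expressed in Expi293F cells, and purified from 1 mL conditioned media by Protein A tips after 4 days. Duplicate Biacore 3000 runs at 50 nM used 100 RU TGFβ immobilized surfaces, and each variant's off-rate (kd) was divided by the wild-type kd.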

human TGFβ2 [12] = target: T3, human TGFβ2; test: Biacore off-rate vs wt GC1008
In short: as §4

human TGFβ1 [13] = target: T1, human TGFβ1; test: Biacore off-rate vs wt GC1008
In short: as §4

T1 sequence (P01137 279-390 limits assumed): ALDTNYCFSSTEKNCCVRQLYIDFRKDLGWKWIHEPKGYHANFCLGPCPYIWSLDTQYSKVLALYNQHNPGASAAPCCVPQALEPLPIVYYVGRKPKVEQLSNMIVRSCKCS

% neutralization in MLEC proliferation assay at 91 pM antibody (human TGFβ1 [1]): 12%
Molecule: 1D11.16 (antibody)

Kd (human TGFβ3 [2]): 2 nM
Kd (human TGFβ1 [3]): 1.7 nM
Kd (human TGFβ2 [4]): 3 nM
B1: GC1008 (antibody, human IgG4, V domains shown)
VH: QVQLVQSGAEVKKPGSSVKVSCKASGYTFSSNVISWVRQAPGQGLEWMGGVIPIVDIANYAQRFKGRVTITADESTSTTYMELSSLRSEDTAVYYCASTLGLVLDAMDYWGQGTLVTVSS
VL: ETVLTQSPGTLSLSPGERATLSCRASQSLGSSYLAWYQQKPGQAPRLLIYGASSRAPGIPDRFSGSGSGTDFTLTISRLEPEDFAVYYCQQYADSPITFGQGTRLEIK
notes: also called GC1008 antibody; wild-type control

KD mutant/KD wt (human TGFβ3 [5]): 11.4
KD mutant/KD wt (human TGFβ2 [6]): 5.3
KD mutant/KD wt (human TGFβ1 [7]): 11
kd var/kd wt (human TGFβ3 [8]): 4.8
kd var/kd wt (human TGFβ2 [9]): 5.2
kd var/kd wt (human TGFβ1 [10]): 7.6
kd mutant/kd wt (human TGFβ3 [11]): 4.8
kd mutant/kd wt (human TGFβ2 [12]): 5.2
kd mutant/kd wt (human TGFβ1 [13]): 7.6
B2: I54R (antibody, V domains shown)
VH: QVQLVQSGAEVKKPGSSVKVSCKASGYTFSSNVISWVRQAPGQGLEWMGGVIPRVDIANYAQRFKGRVTITADESTSTTYMELSSLRSEDTAVYYCASTLGLVLDAMDYWGQGTLVTVSS
VL: ETVLTQSPGTLSLSPGERATLSCRASQSLGSSYLAWYQQKPGQAPRLLIYGASSRAPGIPDRFSGSGSGTDFTLTISRLEPEDFAVYYCQQYADSPITFGQGTRLEIK
notes: GC1008 IgG4 variant
